Source: patent publication US6682731

Biological target: HLA-A2 molecule (MHC class I heterodimer, no peptide of the filing added) (human)
Assay: titration of peptide in 0.174 cell lysate, HLA-A2 stabilisation, immunoprecipitation with BB7.2
Conditions: remark: other sources report otherwise

concentration at which the peptide titrated: 5 to 10 nM
B1: peptide SEQ ID NO: 2, Ala Leu Ser Arg Lys Val Ala Glu Leu (peptide)
peptide: ALSRKVAEL
